This is an account of results in PMC4268010 (Molecular cell, 2014).

Sequences and labels used below:
B1: His6-Flag-tagged Mph1 (enzyme, budding yeast, UniProt P40562 1-993, looked up)
chain: MASADDYFSDFEDDELDKLYEKAINKSVKETITRRAVPVQKDLHDNVLPGQKTVYEEIQRDVSFGPTHHELDYDALSFYVYPTNYEVRDYQYTIVHKSLFQNTLCAIPTGMGKTFIASTVMLNYFRWTKKAKIIFTAPTRPLVAQQIKACLGITGIPSDQTAILLDKSRKNREEIWANKRVFFATPQVVENDLKRGVLDPKDIVCLVIDEAHRATGSSAYTNVVKFIDRFNSSYRLLALTATPASDLEGVQEVVNNLDISKIEIRTEESMDIVKYMKKRKKEKIEVPLLLEIEDIIEQLGMAVKPVLQQAIELGIYEECDPSQINAFKAMQQSQKIIANPTIPEGIKWRNFFILQLLNNVGQMLKRLKIYGIRTFFNYFQNKCTEFTTKYNLKKSTNKIAAEFYYHPILKNIKNQCENYLSDPKFVGHGKLQCVRDELMDFFQKRGSDSRVIIFTELRESALEIVKFIDSVADDQIRPHIFIGQARAKEGFDEVKYTRKHAPKGRKKVERLHRQEQEKFLEAERTKRAANDKLERSARRTGSSEEAQISGMNQKMQKEVIHNFKKGEYNVLVCTSIGEEGLDIGEVDLIICYDTTSSPIKNIQRMGRTGRKRDGKIVLLFSSNESYKFERAMEDYSTLQALISKQCIDYKKSDRIIPEDIIPECHETLITINDENEIINEMEDVDEVIRYATQCMMGKKVKPKKAITKKKRVQENKKPKKFFMPDNVETSIVSASTLINKFLVNESGGKQLVTSNENPSKKRKIFKALDNLENDSTEEASSSLETEDEEVSDDNNVFIAEGQNGCQKDLETAIIRTGESLTTLKPLHNFERPNMALFVNDCGLPTKIEKNVKDIRGNQHNLEKEKSCTVDKNNMVLSLDDWNFFRNRYIPEGVSFDVEPNFVQYTKGVKVPHCHKVSKIITLFNDESNDNKKRTIDMNYTKCLARGMLRDEKKFVKVNDKSQVDNNSVNHDSSQSFTLSNAELDDILGSDSDF

Values joined by “and” are separate entries in the source; they are usually repeats but may differ in a detail not shown here. Equal entries are not always repeated.

Assay [1] deals with T1, His6-Flag-tagged Mph1 (budding yeast), P40562.
T1 chain: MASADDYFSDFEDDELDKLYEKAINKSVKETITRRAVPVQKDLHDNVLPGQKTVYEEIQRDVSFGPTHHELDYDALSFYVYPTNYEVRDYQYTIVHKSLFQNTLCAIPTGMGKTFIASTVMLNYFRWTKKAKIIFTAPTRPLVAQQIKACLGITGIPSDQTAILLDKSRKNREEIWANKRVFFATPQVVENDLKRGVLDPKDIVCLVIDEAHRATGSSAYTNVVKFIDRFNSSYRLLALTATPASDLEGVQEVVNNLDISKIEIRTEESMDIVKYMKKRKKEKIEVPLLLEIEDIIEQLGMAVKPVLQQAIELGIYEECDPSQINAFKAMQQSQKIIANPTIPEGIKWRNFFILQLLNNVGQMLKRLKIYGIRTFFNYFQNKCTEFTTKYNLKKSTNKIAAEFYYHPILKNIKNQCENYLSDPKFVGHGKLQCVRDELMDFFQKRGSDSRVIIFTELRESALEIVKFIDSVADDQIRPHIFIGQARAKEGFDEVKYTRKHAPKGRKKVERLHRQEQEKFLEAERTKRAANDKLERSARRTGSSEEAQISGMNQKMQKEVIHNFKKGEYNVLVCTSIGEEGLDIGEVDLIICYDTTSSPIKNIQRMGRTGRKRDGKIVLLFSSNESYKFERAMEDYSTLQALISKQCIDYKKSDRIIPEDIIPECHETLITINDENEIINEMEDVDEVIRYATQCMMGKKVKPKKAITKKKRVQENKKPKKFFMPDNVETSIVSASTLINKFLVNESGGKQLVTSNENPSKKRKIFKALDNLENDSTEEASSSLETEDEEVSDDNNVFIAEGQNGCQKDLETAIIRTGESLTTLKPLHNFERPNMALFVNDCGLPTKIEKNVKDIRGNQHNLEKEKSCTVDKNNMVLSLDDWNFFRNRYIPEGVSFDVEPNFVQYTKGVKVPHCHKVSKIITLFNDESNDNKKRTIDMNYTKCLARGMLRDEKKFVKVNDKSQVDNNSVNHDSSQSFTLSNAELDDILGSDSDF
Nature of the assay: atomic force microscopy, volume analysis. Particulars: remark: other sources report otherwise.

For assay [2], the target named is T1, His6-Flag-tagged Mph1 (budding yeast), …. Nature of the assay: atomic force microscopy, volume analysis. Particulars: remark: other sources report otherwise.
Assay [3] has as its target Myc-Smc5-Strep-Smc6 complex (UniProt Q08204 1-1093; Q12749 1-1114). Nature of the assay: pull-down.
The next assay deals with T2, Strep-tagged Smc5 (UniProt Q08204 1-1093).
T2 sequence (looked up): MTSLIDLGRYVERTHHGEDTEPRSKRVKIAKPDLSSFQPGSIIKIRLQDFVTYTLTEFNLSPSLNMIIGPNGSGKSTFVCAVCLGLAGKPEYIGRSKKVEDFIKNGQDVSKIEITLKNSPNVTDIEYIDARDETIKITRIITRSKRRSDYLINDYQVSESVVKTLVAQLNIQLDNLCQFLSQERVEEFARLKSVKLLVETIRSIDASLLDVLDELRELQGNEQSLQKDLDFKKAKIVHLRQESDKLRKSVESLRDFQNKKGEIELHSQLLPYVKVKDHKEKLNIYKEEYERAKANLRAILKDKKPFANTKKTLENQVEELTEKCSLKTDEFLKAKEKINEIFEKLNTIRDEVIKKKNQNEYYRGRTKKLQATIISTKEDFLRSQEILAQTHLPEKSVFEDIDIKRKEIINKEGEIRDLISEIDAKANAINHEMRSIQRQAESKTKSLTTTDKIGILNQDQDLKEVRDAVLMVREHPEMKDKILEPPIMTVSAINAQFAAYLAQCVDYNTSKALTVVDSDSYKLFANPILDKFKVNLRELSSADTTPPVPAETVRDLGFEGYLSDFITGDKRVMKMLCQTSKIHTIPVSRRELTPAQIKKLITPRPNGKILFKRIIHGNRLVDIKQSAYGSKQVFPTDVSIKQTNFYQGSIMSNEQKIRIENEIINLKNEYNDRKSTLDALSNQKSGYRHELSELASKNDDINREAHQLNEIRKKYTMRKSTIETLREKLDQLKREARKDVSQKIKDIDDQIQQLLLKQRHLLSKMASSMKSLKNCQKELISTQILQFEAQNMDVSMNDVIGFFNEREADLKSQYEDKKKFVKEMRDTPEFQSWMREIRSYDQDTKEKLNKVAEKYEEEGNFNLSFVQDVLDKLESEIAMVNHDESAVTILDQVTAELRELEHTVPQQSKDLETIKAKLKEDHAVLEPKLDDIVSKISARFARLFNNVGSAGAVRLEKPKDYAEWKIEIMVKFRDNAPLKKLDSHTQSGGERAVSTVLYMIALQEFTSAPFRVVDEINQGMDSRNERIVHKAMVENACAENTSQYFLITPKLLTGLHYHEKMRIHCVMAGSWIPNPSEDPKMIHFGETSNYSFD
The assay can be described thus: pull-down.

In the next assay the target is T3, MBP-tagged Smc5 (WT) (UniProt Q08204 1-1093).
T3 sequence (looked up): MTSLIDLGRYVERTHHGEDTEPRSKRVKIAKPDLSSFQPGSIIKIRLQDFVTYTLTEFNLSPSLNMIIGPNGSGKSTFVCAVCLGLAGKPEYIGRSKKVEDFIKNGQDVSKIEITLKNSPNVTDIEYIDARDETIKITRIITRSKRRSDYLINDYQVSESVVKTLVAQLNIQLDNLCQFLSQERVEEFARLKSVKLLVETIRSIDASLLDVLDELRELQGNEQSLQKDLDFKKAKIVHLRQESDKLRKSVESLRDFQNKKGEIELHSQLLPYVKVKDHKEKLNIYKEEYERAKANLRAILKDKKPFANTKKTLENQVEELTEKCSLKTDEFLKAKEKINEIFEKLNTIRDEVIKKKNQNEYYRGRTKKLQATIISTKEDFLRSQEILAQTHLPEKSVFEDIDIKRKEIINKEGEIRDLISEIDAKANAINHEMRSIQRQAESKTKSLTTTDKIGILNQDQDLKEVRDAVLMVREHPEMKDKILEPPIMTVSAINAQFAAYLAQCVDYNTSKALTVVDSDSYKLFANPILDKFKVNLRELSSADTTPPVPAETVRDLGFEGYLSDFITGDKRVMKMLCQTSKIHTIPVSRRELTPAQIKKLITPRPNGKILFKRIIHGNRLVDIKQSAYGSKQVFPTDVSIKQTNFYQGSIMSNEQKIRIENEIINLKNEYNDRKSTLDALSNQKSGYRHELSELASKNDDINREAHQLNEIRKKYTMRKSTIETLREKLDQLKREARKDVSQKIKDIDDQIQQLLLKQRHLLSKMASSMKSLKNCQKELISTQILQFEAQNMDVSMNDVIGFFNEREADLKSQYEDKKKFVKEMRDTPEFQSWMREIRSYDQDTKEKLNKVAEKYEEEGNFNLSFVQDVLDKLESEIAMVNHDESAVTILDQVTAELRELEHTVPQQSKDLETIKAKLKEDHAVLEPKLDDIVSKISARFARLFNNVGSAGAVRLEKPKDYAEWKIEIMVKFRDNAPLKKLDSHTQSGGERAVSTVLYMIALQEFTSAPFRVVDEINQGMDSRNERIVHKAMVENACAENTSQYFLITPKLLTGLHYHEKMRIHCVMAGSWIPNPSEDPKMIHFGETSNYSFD
Nature of the assay: pull-down.

For the assay “His6-Flag-tagged Mph1”, the target named is B1. Nature of the assay: pull-down.

Sequence of Myc-Smc5-Strep-Smc6 complex (Q12749 whole entry, one chain of several): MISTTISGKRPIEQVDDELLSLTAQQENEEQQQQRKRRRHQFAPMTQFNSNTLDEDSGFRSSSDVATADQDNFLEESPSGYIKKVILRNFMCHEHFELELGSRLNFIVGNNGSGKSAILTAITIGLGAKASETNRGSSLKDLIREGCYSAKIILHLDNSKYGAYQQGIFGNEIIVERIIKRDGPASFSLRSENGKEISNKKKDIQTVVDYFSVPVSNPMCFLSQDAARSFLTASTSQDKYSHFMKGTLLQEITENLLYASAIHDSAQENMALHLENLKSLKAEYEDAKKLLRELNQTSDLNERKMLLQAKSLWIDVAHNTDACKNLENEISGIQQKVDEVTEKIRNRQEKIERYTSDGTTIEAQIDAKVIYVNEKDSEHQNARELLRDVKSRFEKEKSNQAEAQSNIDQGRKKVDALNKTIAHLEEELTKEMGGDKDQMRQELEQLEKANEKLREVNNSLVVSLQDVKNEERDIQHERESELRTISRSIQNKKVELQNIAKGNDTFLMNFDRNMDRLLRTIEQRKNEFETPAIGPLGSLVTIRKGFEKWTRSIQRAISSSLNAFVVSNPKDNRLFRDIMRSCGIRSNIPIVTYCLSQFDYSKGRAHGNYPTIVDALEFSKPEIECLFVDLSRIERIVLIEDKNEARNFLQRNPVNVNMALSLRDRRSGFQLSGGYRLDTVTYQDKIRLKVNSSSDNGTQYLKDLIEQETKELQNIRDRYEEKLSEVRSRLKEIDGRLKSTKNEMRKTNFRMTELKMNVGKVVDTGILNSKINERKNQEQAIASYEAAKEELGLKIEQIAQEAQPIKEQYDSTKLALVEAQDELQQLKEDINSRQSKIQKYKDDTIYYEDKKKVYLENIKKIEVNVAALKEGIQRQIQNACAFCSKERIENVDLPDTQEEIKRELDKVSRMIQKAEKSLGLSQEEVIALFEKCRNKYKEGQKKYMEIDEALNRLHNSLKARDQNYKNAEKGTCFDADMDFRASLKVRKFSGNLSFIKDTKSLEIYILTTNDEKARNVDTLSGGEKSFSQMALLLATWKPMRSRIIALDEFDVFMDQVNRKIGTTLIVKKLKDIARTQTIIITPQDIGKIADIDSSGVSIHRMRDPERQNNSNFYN

Regarding B1, the stoichiometry N (Mph1 monomer equivalents) in assay [1] is 7.3 and 12 and 17.4; in assay [2], 1.4. Also, the binding result (in assay [3]; with Strep-tagged Smc5; with MBP-tagged Smc5 (WT)) was “binds” throughout.

B2: MBP-tagged smc5-ΔNC (residues 149-944) (domain or fragment, UniProt Q08204 149-944, looked up)
chain: DYLINDYQVSESVVKTLVAQLNIQLDNLCQFLSQERVEEFARLKSVKLLVETIRSIDASLLDVLDELRELQGNEQSLQKDLDFKKAKIVHLRQESDKLRKSVESLRDFQNKKGEIELHSQLLPYVKVKDHKEKLNIYKEEYERAKANLRAILKDKKPFANTKKTLENQVEELTEKCSLKTDEFLKAKEKINEIFEKLNTIRDEVIKKKNQNEYYRGRTKKLQATIISTKEDFLRSQEILAQTHLPEKSVFEDIDIKRKEIINKEGEIRDLISEIDAKANAINHEMRSIQRQAESKTKSLTTTDKIGILNQDQDLKEVRDAVLMVREHPEMKDKILEPPIMTVSAINAQFAAYLAQCVDYNTSKALTVVDSDSYKLFANPILDKFKVNLRELSSADTTPPVPAETVRDLGFEGYLSDFITGDKRVMKMLCQTSKIHTIPVSRRELTPAQIKKLITPRPNGKILFKRIIHGNRLVDIKQSAYGSKQVFPTDVSIKQTNFYQGSIMSNEQKIRIENEIINLKNEYNDRKSTLDALSNQKSGYRHELSELASKNDDINREAHQLNEIRKKYTMRKSTIETLREKLDQLKREARKDVSQKIKDIDDQIQQLLLKQRHLLSKMASSMKSLKNCQKELISTQILQFEAQNMDVSMNDVIGFFNEREADLKSQYEDKKKFVKEMRDTPEFQSWMREIRSYDQDTKEKLNKVAEKYEEEGNFNLSFVQDVLDKLESEIAMVNHDESAVTILDQVTAELRELEHTVPQQSKDLETIKAKLKEDHAVLEPKLDDIVSKISARFARLF
As to B2, the binding result in the assay with His6-Flag-tagged Mph1 was “binds”.
